We go through 57 substances from the supplement of paper PMC12042874.

± gives the uncertainty stated by the source.

The data set in a line: amyloid nucleation score (Sup35N fusion, yeast selection) (log enrichment); library NNK2; higher = more nucleation; inactive = no reads after selection. The method, boiled down: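 Output and input plasmid inserts were sequenced by Illumina after psi-negative yeast carrying Sup35N fused to peptides of 20 random codons had been induced 24 hours with 100 μM copper sulfate and grown 7 days at 30°C on medium lacking adenine and uracil. The nucleation score is the DiMSum log enrichment of output over input reads, centred on the mode score of non-aggregating sequences. Sequences with under 100 input reads were excluded.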
Turning to YYLSNSWVLYFCFGIFVTSQ, the amyloid nucleation score turned out to be 1.88 ± 0.094.
On to WAWIHSADLNYNCVMRGCLP, for which the amyloid nucleation score stood at 2.16 ± 0.14.
With LHLRNVMVQ, the amyloid nucleation score is -0.681 ± 0.31.
Take SVVWFNTMYLYDWLHKPICI: the amyloid nucleation score entry was “inactive”.
Then FCRNIKDYLDYCHRGVGPKK, with 0.176 ± 0.76; and FVVQCY, with 0.998 ± 0.52; and ISKEMGNYNFGLSKYAKR, with -1.06 ± 0.3.
With VHHLDNYLQAN, the amyloid nucleation score is -0.659 ± 0.34.
VFFISEIRPKFFLTLPRTAL: the amyloid nucleation score was determined as 4.87 ± 0.096.
As for MVYNQCRSDL, the amyloid nucleation score is -1.04 ± 0.23.
In turn, SHSGIFSDAAHDVLGGGEEK yielded an amyloid nucleation score of 0.503 ± 0.8.
Consider LNYALLVEFCLCLNPDNNSS, for which the amyloid nucleation score stood at 8.57 ± 0.055.
With LNVLISYMHRVWRYIVSAR, the amyloid nucleation score turned out to be 0.362 ± 0.35.
For MLFAVDLVYGPDPLVNELTW, the amyloid nucleation score amounted to 1.03 ± 0.4.
On to KTFMCSFSQHVKGSGVFLTS, for which the amyloid nucleation score was -0.346 ± 0.49.
QLDGWELATHRWCVILYVGC: the amyloid nucleation score was -0.471 ± 0.48.
As for NSQGYFMFIKVDHS, the amyloid nucleation score was -1.39 ± 1.1.
For LLALSFLTVVFEFCLNSMMG, the amyloid nucleation score is -1.28 ± 0.62.
As for ITLFDHRSSKTTLKDFAENT, the amyloid nucleation score was -0.137 ± 1.1.
Then KNTVKDGWRMMMDGCMNTHW, with 0.259 ± 0.15; and WFMFDFFYF, with “inactive”; and PISNLHILGFHHLTQHDRTV, with 1.05 ± 0.3.
Consider PYVHVYLWQSLKALVYLTCY, for which the amyloid nucleation score entry was “inactive”.
In the case of DVCLHMGKYSNVLILGHNWS, the amyloid nucleation score is -0.449 ± 0.36.
In the case of RMSIFPGH, the amyloid nucleation score was -1.04 ± 1.1.
PTRFSLDHWFPSVHYYPRLY: the amyloid nucleation score was -1.05 ± 1.1.
Substance MRLHSLGRCGQWSCDVGRER registered an amyloid nucleation score of 0.918 ± 0.35.
VLFVTVPLSMVIMVSQT: the amyloid nucleation score was -0.277 ± 1.
Consider MIGGDGPRDV, for which the amyloid nucleation score stood at 0.745 ± 0.38.
Consider SYLKYVDWQTFKVTWCAGGN, for which the amyloid nucleation score was -0.38 ± 0.54.
In the case of PVLVGESHSIGL, the amyloid nucleation score turned out to be 0.863 ± 0.24.
ATTYAYTGAQLTWFRWMVVQ came in with an amyloid nucleation score of 0.832 ± 0.31.
As to PLCHLLYRSLMFFTLSEVSC, the amyloid nucleation score was found to be 0.042 ± 0.8.
Turning to TYTMGRHNFVMSLSFFSHSA, the amyloid nucleation score came to 4.861 ± 0.044.
In the case of CFNGLDLLILSTKMVSLLWY, the amyloid nucleation score is -0.492 ± 1.1.
Turning to KLFIRWVAWY, the amyloid nucleation score is 0.113 ± 0.8.
STLVIVCFYICRHFSTYRVR: the amyloid nucleation score was -0.832 ± 0.32.
Take SFSANADYGWNDRTNFFSVF: the amyloid nucleation score result was “inactive”.
The substance DPRLSSLSCMGRWHHNYHAS yielded an amyloid nucleation score of 0.772 ± 0.5.
Then NVTVAWFVNLSPWF, with 7.288 ± 0.045.
The substance YYGVKSAM registered an amyloid nucleation score of 0.074 ± 0.49.
As for IVTLVSDAYSKLTRLMNSVS, the figure is -0.561 ± 0.23.
As for FNMHI, the figure is 0.8 ± 0.8; as for TSHSFVLVY, -0.705 ± 0.33; as for VNLSDDCELVYRSCEVLLNY, -1.34 ± 1.1.
In turn, LHSSSHVGGYSVGSRSFIHG gave an amyloid nucleation score of 0.294 ± 1.1.
On to DFCRQLWTKNKNVLRFICNS, for which the amyloid nucleation score was -0.342 ± 1.
TRISMRLWFSGRELIEALKF: the amyloid nucleation score was -0.29 ± 0.65.
In turn, QKNLEGLPEVEGNRRRCVVR returned an amyloid nucleation score of 0.033 ± 0.52.
Consider CFCKKCWVDSLLRRRVNNFH, for which the amyloid nucleation score was -0.737 ± 1.1.
Take VMWKEFLPGILCGCCKLGFS: the amyloid nucleation score is -0.481 ± 0.33.
In turn, YQLNWVKAASCSISLYFTFL had an amyloid nucleation score of 3.87 ± 0.082.
RGLRMYERGSVTWSFDFMEG had an amyloid nucleation score of 5.44 ± 0.077.
As for GPEWSSLGSKVRLHWINSM, the figure is 0.626 ± 0.8; as for DVKWA, 1.1 ± 0.21.
For CMEKFTLELTVIIRHSNQLG, the amyloid nucleation score is 0.225 ± 0.31.
The substance LDPKIRWLWK had an amyloid nucleation score of 0.204 ± 0.6.
